From publication PMC6659671

Experiments:
HisBamA S425C (E. coli) = HisBamA S425C (E. coli) (UniProt P0A940); test: cross-linking
HisBamA G781C (E. coli) [1] = target: HisBamA G781C (E. coli) (UniProt P0A940); test: cross-linking
HisBamA G781C (E. coli) [2] = target: HisBamA G781C (E. coli) (UniProt P0A940); test: cross-linking; kinetics of intermolecular disulfide-bond formation in intact cells; 0.2 mM 4-DPS on ice for 0, 2, 5, 15, 30, 60 and 90 min; quantitated from αStrepII immunoblots

Row | Substance | percent disulfide-bond formation (HisBamA S425C (E. coli)) [%] | percent disulfide-bond formation (HisBamA G781C (E. coli) [1]) [%] | K (rate constant of disulfide-bond formation, single-step fit) (HisBamA G781C (E. coli) [2]) [min⁻¹] | half-time of disulfide-bond formation (HisBamA G781C (E. coli) [2]) [min]
1 | MBP−76EspP Y1298C (from UniProt Q7BSW5) | 28 | – | – | –
2 | MBP−76EspP A1043C (from UniProt Q7BSW5) | – | 42 | 0.038 | 18.2
